Laboratory results as given in patent publication US20200399712A1, “COMPOSITIONS AND METHODS FOR THE DIAGNOSIS AND DETECTION OF TUMORS AND CANCER PROGNOSIS” (priority 2018, published 2020).

How the values were obtained:
[1] = system: E2, E4, E5 expression head and neck cell line; assay: Growth of E2, E4, E5 expressing head and neck cell line with FGFR inhibitor; format: cell-based
HPV-16 genome = assay: qPCR sensitivity against HPV-16 copy number (known-copy HPV-16 DNA among 10 ng normal human DNA); conditions: for reaction under 30 copies of HPV-16 genome: among 10 ng normal DNA, triplicate qPCR
HPV-16 [2] = assay: qPCR sensitivity against HPV-HNSCC tumor samples diluted among 10 ng normal human DNA
Experimental: Quantitative real-time polymerase chain reaction (qRT-PCR) was used to examine the threshold in each experiment. qRT-PCR was performed using Quant Studio 6 Flex Real-Time PCR System (Thermo Fisher Scientific). All samples were run in triplicates. HPV-16 viral amplicon copy number estimations were developed using the CaSki cell line. After amplification of the amplicon by PCR, DNA concentration was calculated by weight NanoDrop®, then converted to DNA copy number by calculation based on the molecular weight of the double stranded amplicon. […] In the other 32 HPV-HNSCC cohort, Applicants diluted the tumor sample to 990 pg, 198 pg, 99 pg, 39.6 pg, 7.9 pg, 3.2 pg, and 1.6 pg of amount tumor weight, (correspond to 150, 30, 15, 6, 1.2, 0.6, and 0.3 cells: assumption that 1 tumor cell have 6.6 pg DNA (=3*10^9 (human DNA genome bp)*2 (diploid)*1.67*10^(−24) g (weight/Dalton))) combined with 10 ng normal leukocyte human DNA and compare the threshold of each primer-probe sets.
In this regard, Applicants investigated the other 32 HPV-HNSCC tumor samples. From the assumption that 1 cell tumor DNA contain 6.6 pg DNA, Applicants made the dilution series by DNA derived from normal lymphocyte as described and decide the threshold for each primer-probe set.
Furthermore, to determine whether these designed primer/probe sets also have a high sensitivity in a separate cohort, Applicants performed PCR in a validation cohort of 32 additional primary tumor samples with validated presence of HPV-16. Applicants prepared serial of dilutions of tumor DNA in normal lymphocyte DNA from non-cancer individuals and determined the threshold for each primer/probe set and defined amplification thresholds expressed in number of tumor cells for each sample (Table 5).

HPV16 DNA [3] = assay: CLIA test for HPV16, performance characteristics in salivary rinse
Description: (§1) These primer/probe sets were adapted for development of a CLIA test for HPV16 DNA detection in plasma and salivary rinses (Table 2). Test performance was improved, so that analytical sensitivity in salivary rinse spike in assays ranges from 2.5-5.0 DNA copies/mL with 100% specificity for the three primer/probe sets that are now part of the component assay, resulting in a five-fold improvement in analytic sensitivity that is in the range of sensitivity found in sequence based liquid biopsy methods (FIG. 23, Table 2). Additionally, the assays can be used quantitatively, with measuring ranges between 2.0 log10-7.0 log10 copies/mL.

HPV-16 [4] = assay: qPCR on 20 ng DNA from saliva samples of HPV-HNSCC patients
HPV16 DNA [5] = assay: CLIA test for HPV16, performance characteristics in plasma
Description: as §1

HPV DNA = assay: CLIA HPV test pilot study on saliva rinse samples from HPV-positive HNSCC patients and non-cancer controls; parameters: species or system HPV16; HPV16 DNA measured by CLIA HPV test: unit not given here
Experimental: As a final validation, Applicants a small pilot study was performed on a blinded set of saliva rinse samples from 28 patients with HPV-positive HNSCC and 15 salivary rinses from non-cancer controls. […] The sensitivity increased to 96% when all three sets were used (Table 3).

[6] = samples tested 3 times, 10 ng DNA from healthy individual
[7] = tumor DNA dilution, fraction of 32 samples
[8] = first template ('... HPV16', word is an image)
[9] = second template (name is an image)

Molecule: AZD4547
- growth effect induced by E2, E4, E5 [1]: reversed the growth effect induced by E2, E4, E5

B1: HR E5L2-4: primer/probe set for junction between E5 and L2, SEQ ID NO: 55-57 (same as SEQ ID NO: 4-6) (nucleic acid)
DNA 1: GCAAAACGCACAAAACGTGC
DNA 2: GACATGTACCTGCCTGTTTGC
DNA 3: CGGCTACCCAACTTTATAAAACA
modifications: chemistry not given here
- reaction under 30 copies of HPV-16 genome (HPV-16 genome): consistently amplified
- reaction under 30 copies of HPV-16 genome (HPV-16 genome; listed as Max-10): react consistently
- number of reactions against 10 HPV-16 copies (HPV-16 genome; [6]): one
- number of reactions under 30 HPV-16 copies (HPV-16 genome; [6]): 3 reactions
- sensitivity under 100 cells (HPV-16 [2]; 32 HPV-HNSCC tumor samples): 93.8%
- sensitivity under single cells (HPV-16 [2]; 32 HPV-HNSCC tumor samples, 6.6 pg DNA): 15.6%
- sensitivity under 10 cells (HPV-16 [2]; 32 HPV-HNSCC tumor samples, 66 pg DNA): 50.0%
- Threshold of tumor cell numbers for HPV-16 detection (HPV-16 [2]; Sample # 1): 30.0 tumor cells
- Threshold of tumor cell numbers for HPV-16 detection (HPV-16 [2]; Sample # 2): 30.0 tumor cells
- Threshold of tumor cell numbers for HPV-16 detection (HPV-16 [2]; Sample # 3): 150.0 tumor cells
- Threshold of tumor cell numbers for HPV-16 detection (HPV-16 [2]; Sample # 4): 60.0 tumor cells
- Threshold of tumor cell numbers for HPV-16 detection (HPV-16 [2]; Sample # 5): 150.0 tumor cells
- Threshold of tumor cell numbers for HPV-16 detection (HPV-16 [2]; Sample # 6): 30.0 tumor cells
- Threshold of tumor cell numbers for HPV-16 detection (HPV-16 [2]; Sample # 7): 30.0 tumor cells
- Threshold of tumor cell numbers for HPV-16 detection (HPV-16 [2]; Sample # 8): 15.0 tumor cells
- Threshold of tumor cell numbers for HPV-16 detection (HPV-16 [2]; Sample # 9): 30.0 tumor cells
- Threshold of tumor cell numbers for HPV-16 detection (HPV-16 [2]; Sample # 10): 30.0 tumor cells
- Threshold of tumor cell numbers for HPV-16 detection (HPV-16 [2]; Sample # 11): 6.0 tumor cells
- Threshold of tumor cell numbers for HPV-16 detection (HPV-16 [2]; Sample # 12): 30.0 tumor cells
- Threshold of tumor cell numbers for HPV-16 detection (HPV-16 [2]; Sample # 13): 30.0 tumor cells
- Threshold of tumor cell numbers for HPV-16 detection (HPV-16 [2]; Sample # 14): 30.0 tumor cells
- Threshold of tumor cell numbers for HPV-16 detection (HPV-16 [2]; Sample # 15): 30.0 tumor cells
- Threshold of tumor cell numbers for HPV-16 detection (HPV-16 [2]; Sample # 16): 6.0 tumor cells
- Threshold of tumor cell numbers for HPV-16 detection (HPV-16 [2]; Sample # 17): 6.0 tumor cells
- Threshold of tumor cell numbers for HPV-16 detection (HPV-16 [2]; Sample # 18): 6.0 tumor cells
- Threshold of tumor cell numbers for HPV-16 detection (HPV-16 [2]; Sample # 19): 1.2 tumor cells
- Threshold of tumor cell numbers for HPV-16 detection (HPV-16 [2]; Sample # 20): 1.2 tumor cells
- Threshold of tumor cell numbers for HPV-16 detection (HPV-16 [2]; Sample # 21): 6.0 tumor cells
- Threshold of tumor cell numbers for HPV-16 detection (HPV-16 [2]; Sample # 22): 0.3 tumor cells
- Threshold of tumor cell numbers for HPV-16 detection (HPV-16 [2]; Sample # 23): 1.2 tumor cells
- Threshold of tumor cell numbers for HPV-16 detection (HPV-16 [2]; Sample # 24): 1.2 tumor cells
- Threshold of tumor cell numbers for HPV-16 detection (HPV-16 [2]; Sample # 25): 0.6 tumor cells
- Threshold of tumor cell numbers for HPV-16 detection (HPV-16 [2]; Sample # 26): 0.6 tumor cells
- Threshold of tumor cell numbers for HPV-16 detection (HPV-16 [2]; Sample # 27): 0.6 tumor cells
- Threshold of tumor cell numbers for HPV-16 detection (HPV-16 [2]; Sample # 28): 1.0 tumor cells
- Threshold of tumor cell numbers for HPV-16 detection (HPV-16 [2]; Sample # 29): 3.0 tumor cells
- Threshold of tumor cell numbers for HPV-16 detection (HPV-16 [2]; Sample # 30): 30.0 tumor cells
- Threshold of tumor cell numbers for HPV-16 detection (HPV-16 [2]; Sample # 31): 0.6 tumor cells
- Threshold of tumor cell numbers for HPV-16 detection (HPV-16 [2]; Sample # 32): 30.0 tumor cells
- Sensitivity, 1 cell (HPV-16 [2]; [7]): 0.156
- Sensitivity, 3 cells (HPV-16 [2]; [7]): 0.313
- Sensitivity, 10 cells (HPV-16 [2]; [7]): 0.500
- Sensitivity, 30 cells (HPV-16 [2]; [7]): 0.844
- Sensitivity, 100 cells (HPV-16 [2]; [7]): 0.938
- Measuring Range - Salivary Rinse (HPV16 DNA [3]; first template ('... HPV16')): 2.0-8.5log10 log10 copies/mL
- Limit of Detection - Salivary rinse (HPV16 DNA [3]; [8]): 2 copies/mL
- Limit of Detection - Salivary rinse (HPV16 DNA [3]; [9]): 19 copies/mL
- Measuring Range - Salivary Rinse (HPV16 DNA [3]; [9]): 2.0-6.5 log10 log10 copies/mL
- sensitivity of detection from saliva 20 ng DNA samples (HPV-16 [4]; 28 HPV-HNSCC saliva samples): 46.4%
- copy numbers detected (standard curve analysis) (HPV-16 [4]; compared among 4 primer-probe sets): highest
- Accuracy - Plasma Blind Panel, Negative % Agreement (HPV16 DNA [5]): 100%
- Accuracy - Plasma Blind Panel, Positive % Agreement (HPV16 DNA [5]): 100%
- Accuracy - Plasma Blind Panel, Total % Agreement (HPV16 DNA [5]): 100%
- Measuring Range - Plasma (HPV16 DNA [5]; first template ('... HPV16')): 2.0-8.5 log10 log10 copies/mL
- Limit of Detection - Plasma (HPV16 DNA [5]; [8]): 1.5 copies/mL
- Limit of Detection - Plasma (HPV16 DNA [5]; [9]): 20 copies/mL
- Measuring Range - Plasma (HPV16 DNA [5]; [9]): 2.0-6.5 log10 log10 copies/mL
- sensitivity for the detection of HPV DNA in saliva rinse samples (HPV DNA; 28 patients with HPV-positive HNSCC): 71%
- HPV16 DNA measured by CLIA HPV test (HPV DNA; saliva sample from HPV-HNSCC patient # 1): 322000
- HPV16 DNA measured by CLIA HPV test (HPV DNA; saliva sample from HPV-HNSCC patient # 2): 52500
- HPV16 DNA measured by CLIA HPV test (HPV DNA; saliva sample from HPV-HNSCC patient # 3): 25800
- HPV16 DNA measured by CLIA HPV test (HPV DNA; saliva sample from HPV-HNSCC patient # 4): 33200
- HPV16 DNA measured by CLIA HPV test (HPV DNA; saliva sample from HPV-HNSCC patient # 7): 9670
- HPV16 DNA measured by CLIA HPV test (HPV DNA; saliva sample from HPV-HNSCC patient # 8): 2510
- HPV16 DNA measured by CLIA HPV test (HPV DNA; saliva sample from HPV-HNSCC patient # 9): 1590
- HPV16 DNA measured by CLIA HPV test (HPV DNA; saliva sample from HPV-HNSCC patient # 12): 86.7
- HPV16 DNA measured by CLIA HPV test (HPV DNA; saliva sample from HPV-HNSCC patient # 13): 53.1
- HPV16 DNA measured by CLIA HPV test (HPV DNA; saliva sample from HPV-HNSCC patient # 14): 31.1
- HPV16 DNA measured by CLIA HPV test (HPV DNA; saliva sample from HPV-HNSCC patient # 15): 49.7
- HPV16 DNA measured by CLIA HPV test (HPV DNA; saliva sample from HPV-HNSCC patient # 16): 41.3
- HPV16 DNA measured by CLIA HPV test (HPV DNA; saliva sample from HPV-HNSCC patient # 17): 15.8
- HPV16 DNA measured by CLIA HPV test (HPV DNA; saliva sample from HPV-HNSCC patient # 18): 2.61
- HPV16 DNA measured by CLIA HPV test (HPV DNA; saliva sample from HPV-HNSCC patient # 19): 26.9
- HPV16 DNA measured by CLIA HPV test (HPV DNA; saliva sample from HPV-HNSCC patient # 20): 13.4
- HPV16 DNA measured by CLIA HPV test (HPV DNA; saliva sample from HPV-HNSCC patient # 21): 6.54
- HPV16 DNA measured by CLIA HPV test (HPV DNA; saliva sample from HPV-HNSCC patient # 22): 1.16
- HPV16 DNA measured by CLIA HPV test (HPV DNA; saliva sample from HPV-HNSCC patient # 26): 2.15
- HPV16 DNA measured by CLIA HPV test (HPV DNA; saliva sample from HPV-HNSCC patient # 27): 1.19
